The values that follow come from patent US20230340114A1 (IMMUNE ONC THERAPEUTICS, published 2023).

The target of assay [1] is T1, flag-tagged cynomolgus monkey LILRB4 expressed on CHO-K1 cells (cynomolgus monkey).
T1 construct: whole, on cells; also called cyno LILRB4
The experiment in a line: FACS, CHO-K1 cells stably expressing flag-tagged cyno LILRB4; H7K3 in formulation buffer, T0. How it is done: (§1) EC50 FACS: Stable CHO-K1 cells expressing either human LILRB4 or flag-tagged cynomolgus monkey LILRB4 were used to determine binding capacity of stability samples of H7K3 antibody. CHO-K1 cells (1×10⁵) were stained with serially titrated stability samples followed by secondary staining with fluorescent-conjugated anti-human IgG (Biolegend). Geometric mean fluorescence (MFI) was measured and EC₅₀ were calculated by Prism.
(§2) The inventors then assessed the stability of the antibody H7K3 at 40° C. in PBS or a formulation buffer, the results of which are summarized in the Tables 2 and 3.

Assay [2] has as its target T1, flag-tagged cynomolgus monkey LILRB4 …. The experiment in a line: FACS, CHO-K1 cells stably expressing flag-tagged cyno LILRB4; H7K3 in PBS after 4 weeks at 40°C. On the procedure:
as §1, §2

Assay [3] has as its target T2, human LILRB4 expressed on cells (human, UniProt Q8NHJ6 22-448).
T2 construct: whole, on cells; also called ILT3; CD85k
Briefly: FACS, CHO-K1 cells stably expressing human LILRB4; H7K3 in formulation buffer after 2 weeks at 40°C. On the procedure: as §1, §2

Assay [4] deals with T2, human LILRB4 expressed on cells. The experiment in a line: FACS, CHO-K1 cells stably expressing human LILRB4; H7K3 in PBS after 2 weeks at 40°C. On the procedure: as §1, §2
Assay [5] deals with T1, flag-tagged cynomolgus monkey LILRB4 …. The experiment in a line: FACS, CHO-stable cells expressing cyno LILRB4.
For assay [6] the target is unchanged. Briefly: FACS, CHO-K1 cells stably expressing flag-tagged cyno LILRB4; H7K3 reference row of the PBS stability table. On the procedure: as §1
Assay [7] concerns the target T2, human LILRB4 expressed on cells. The experiment in a line: FACS, CHO-K1 cells stably expressing human LILRB4; H7K3 reference row of the formulation buffer stability table; H7K3 reference row of Table 3 (formulation buffer), not a T0 or 40° C. sample. On the procedure: as §1
Assay [8] has as its target T1, flag-tagged cynomolgus monkey LILRB4 …. The experiment in a line: FACS, CHO-K1 cells stably expressing flag-tagged cyno LILRB4; H7K3 in formulation buffer after 2 weeks at 40°C. How it is done: as §1, §2
Assay [9] shares this target. The experiment in a line: FACS, CHO-K1 cells stably expressing flag-tagged cyno LILRB4; H7K3 in PBS, T0. On the procedure: as §1, §2
Assay [10] has the same target. The experiment in a line: FACS, CHO-K1 cells stably expressing flag-tagged cyno LILRB4; H7K3 in formulation buffer after 4 weeks at 40°C. How it is done: as §1, §2
In assay [11] the target is T2, human LILRB4 expressed on cells. The experiment in a line: FACS, CHO-K1 cells stably expressing human LILRB4; H7K3 reference row of the PBS stability table. How it is done:
as §1, §2

Assay [12] has as its target T1, flag-tagged cynomolgus monkey LILRB4 …. The experiment in a line: FACS, CHO-K1 cells stably expressing flag-tagged cyno LILRB4; H7K3 in PBS after 2 weeks at 40°C. How it is done:
as §1, §2

Assay [13] has as its target T2, human LILRB4 expressed on cells. The experiment in a line: FACS, CHO-K1 cells stably expressing human LILRB4; H7K3 in formulation buffer, T0. How it is done:
as §1

Assay [14] shares this target. The experiment in a line: FACS, CHO-K1 cells stably expressing human LILRB4; H7K3 in PBS after 4 weeks at 40°C. On the procedure:
as §1, §2

For assay [15] the target is unchanged. Briefly: FACS, CHO-K1 cells stably expressing human LILRB4; H7K3 in formulation buffer after 4 weeks at 40°C. On the procedure: as §1, §2
Assay [16] shares this target. The experiment in a line: FACS, CHO-K1 cells stably expressing human LILRB4; H7K3 in PBS, T0. How it is done:
as §1, §2

In assay [17] the target is T1, flag-tagged cynomolgus monkey LILRB4 …. The experiment in a line: FACS, CHO-K1 cells stably expressing flag-tagged cyno LILRB4; H7K3 reference row of the formulation buffer stability table. How it is done:
as §1

Assay [18] concerns the target T2, human LILRB4 expressed on cells. The experiment in a line: FACS, CHO-stable cells expressing human LILRB4.

B1: H7K3 (antibody, V domains shown)
VH: EVQLVESGGGLVQPGGSLRLSCAASGFSLSSSYWISWVRQAPGKGLEWIGSIDSGSVGITYYATWVKGRFTISRDNSKNTLYLQMNSLRAEDTAVYYCARHGDNWALDLWGQGTLVTVSS
VL: DIQMTQSPSTLSASVGDRVTITCRASQSINSWLAWYQQKPGKAPKLLIYKASTLASGVPSRFSGSGSGTEFTLTISSLQPDDFATYYCQHGYIRGDLDNVFGGGTKVEIK
notes: Humanized from rabbit antibody B4-193; also called humanized anti-LILRB4 antibody; WT
As for B1, the EC50 in [1] stood at 0.883 nM; in [2], 1.72 nM; in assay [3] it was 1.42 nM; in [4], 0.895 nM; in assay [5], 1.33 nM; in assay [6], 1.19 nM. In addition, the EC50 turned out to be 0.65 nM in assay [7]; 3.81 nM in assay [8]; 1.21 nM in assay [9]; 6.05 nM in assay [10]; 0.65 nM in assay [11]; 1.71 nM in assay [12]. Further, the EC50 in assay [13] stood at 0.557 nM; in assay [14], 0.696 nM; in [15], 2.14 nM; in [16], 0.734 nM; in assay [17] it was 1.19 nM; in [18], 0.543 nM.
